Measured values: patent US20260049151A1 (SHENGHE CHINA BIOPHARMACEUTICAL, published 2026)

Target: T1, Human 4-1BB His (human, UniProt Q07011 24-186)
T1 construct: Bought protein; lots 198-2146F1-W6 and 2407c-214FF1-YC; also called human 4-1BB protein; 4-1BB protein; not shown: His tag
Assay: ELISA: Human 4-1BB His coated (0.2 ug/mL), antibody titrated, goat anti-human IgG Fc detection (Example 3)
Experimental: Human 4-1BB His (manufacturer: Acro, CAT: 41B-H5258, LOT: 198-2146F1-W6) was diluted to 0.2 μg/mL with a coating solution (1×PBS, pH7.4), and coated in 96-well ELISA plate at 100 μL/well overnight at 4° C. The coating solution was poured off. Each well was washed with 1×PBST at 300 μL, washed 4 times with a plate washer, and patted dry on a flat paper. It was blocked with 3% skim milk powder at 300 μL/well, and incubated at 37° C. for 1 h. The blocking solution was poured off, washed 4 times with a plate washer, and patted dry on a flat paper. Negative control and positive control were set up. […] The variable region of the antibody sequence of the positive control consists of SEQ ID NO: 15 and SEQ ID NO: 19, with the addition of the constant region of human IgG1 (SEQ ID NO: 46 and SEQ ID NO: 47). The positive control and antibody were diluted to 10 μg/mL with 3% skim milk powder as the starting concentration, and then diluted by 3-fold gradient (11 gradients in total), and a blank well was set up and only the diluent was added. It was incubated at 37° C. for 1 h at 100 μL/well. The liquid in the well was discarded, washed 4 times with a plate washer, and patted dry on a flat paper. Goat anti-human IgG Fc was diluted with 3% skim milk powder at 1:20000, and incubated at 37° C. for 1 h at 100 μL/well. It was washed 6 times with a plate washer, and patted dry on a flat paper. TMB color developing solution was added at 100 μL/well, and wrapped with aluminum foil. Color development was performed at 37° C. in the dark for 8 min. Termination solution 1M HCl was added to terminate the color development reaction at 100 μL/well. Readings were taken at 450 nm on an ELISA reader.

T1 sequence (Q07011 24-186 limits assumed): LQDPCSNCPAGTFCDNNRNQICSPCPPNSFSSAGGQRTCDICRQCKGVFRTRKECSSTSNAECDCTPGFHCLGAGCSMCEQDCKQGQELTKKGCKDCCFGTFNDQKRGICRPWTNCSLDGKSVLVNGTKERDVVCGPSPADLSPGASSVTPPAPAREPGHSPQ

B1: Antibody E1 (bispecific antibody, human IgG1, kappa)
light: DIVMTQSPATLSVSPGERATLSCKASQNVGSNVDWYQQKPGQSPRVLIYKASIRYTGIPARFSGSGSGTEFTLTISILQSEDFAVYFCMQSKSYPITFGQGTKLEIKRTVAAPSVFIFPPSDEQLKSGTASVVCLLNNFYPREAKVQWKVDNALQSGNSQESVTEQDSKDSTYSLSSTLTLSKADYEKHKVYACEVTHQGLSSPVTKSFNRGEC
heavy: not shown
notes: IgG1 subtype; full-length TNFR2 antibody with 4-1BB scFv at the C-terminus of the heavy chains
- EC50 (read off the curve): ~0.2 nM
